Measured values as given in patent publication US20260374871 (published 2026).

Target: human CTLA-4 (human, UniProt P16410)
Test: BLI

Sequence of human CTLA-4 (P16410 36-161): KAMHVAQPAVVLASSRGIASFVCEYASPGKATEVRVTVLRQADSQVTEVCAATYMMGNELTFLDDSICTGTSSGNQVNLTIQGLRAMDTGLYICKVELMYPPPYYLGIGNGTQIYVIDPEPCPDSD

B1: GBD008-hS005-5 (designed binder)
chain: EVQLVESGGGLVQPGGSLRLSCAASGRTASSNAMAWFRQAPGKEREFVSAISATGGLTAYADSVKGRFTISRDNSKNTLYLQMNSLRAEDTAVYIGAVGRERWYLRHTENEYDYWGQGTLVTVSS
Q: How did the Kd turn out when B1 was run?
A: 0.155 nM

B2: GBD008-hS005 (designed binder)
chain: QVQLVESGGGLVEAGGSLRLSCATSGRTASSNAMAWFRQAPGKEREFVAAISATGGLTAYADSVKGRFTISRDNSKNAVYLQMNTLKPEDTAVYIGAVGRERWYLRHTENEYDYWGRGAQVTVSS
Q: How did the Kd turn out when B2 was run?
A: 0.269 nM
